B1: rHc-ACOX-1.3 (Haemonchus contortus) (protein)
chain: MPFRGITVGDIGPKMAYNGVDNGFLAFDHYRIPRNNMLMKHVKVTPEGKYVPPAHAKVGYSAMVHVRAHMISTQAAFLAQALTTAIRYSAIRRQGEIQPGRGEVKILEYQTQQHRLFPQLARAYAFIFTGQAVRVIFQRVQKDVARGKVDEMAELHYISSGLKAVVTYLTGQGIEQARMSCGGHGYSKASNMSELYGVAIGGATYEGENMVMLQQLARYLMKSAEAAKNGRAVGKLVDYLVRSSEQRSAIDRKPDHDYTAHLKAFDKAAKLQVMKAYERMQSLRARGLTEEEAWNANAVELNRAARVHTRQYIARTFDEHVKAVVHGPCREVLLDLLYLHLNYELLDMAYYLLEDGYLSGQQMDYMKEDMYRLLARLRPNIVSLVDSWDFSDHELRSVLGRRDGHVYENLYKWAQESELNRTQVLPTFEKYLKPMMKQAREQSKL
notes: N-terminal FLAG tag, pcDNA3.1, expressed in HEK293T cells, purified on anti-FLAG magnetic beads; Glu206 active site; C-terminal PTS1 (SKL)
B2: rHc-ACOX-1.1 (Haemonchus contortus) (protein)
chain: MPLNKLLRDGDNEDLAEERRKATFDTDEMAAIIWEGKERVRRRREITKKVNEYTELHDPYCQAFMTRHEEVENAARKITKMFSLIDKLGVNPTNAADMAHLTSEVIGLYGHPLALHAVMFIPSLQAQCADDQMHWLKKAMSRQIIGTYAQTELGHGTNLRKLETTATHDANTQEFVLHSPTRTAMKWWPGNLGKSANHAVVVACLIIDGKNYGPHNFIVPLRDPETHMPLKGITVGDIGPKMATGPVDNGFLSFDHYRIPRTNMLMKHAKVTPEGKYIPPAHAKVGYSAMVHVRSHMISDQAKFLAQALTTAIRYSAIRRQGEIQPGDGEVKILEYQTQQYRLLPQLARAYAFSFTGRAVRDLYLRVQKDVAKGKVDEMAELHYITSGLKAVVTHLTGEGISQARMSCGGHGYSKASNMPDLYGIAVADCTYEGENMVMLQQLARYLMRAAGEAEKGRALGRLVNYLVEPSDIHSSIDRQLDYDYKAHLKAFDKAAKLQVMKAYERMRALKAQGLSEEDAWNANAVELNRAARVHTRQYIAHQFYEQVSSVTDGRCREVPRDLLHLHLNYEILDMAYYLLEDGFLSGQQMDYMKEDMYRLLAKLRPNAVSLVDSWDISDHELRSVLGRRDGHVYENLYKWAQESELNRTQVLPTFEKYLKPMMMEAHAQSKL
notes: full-length transcript 2019 nt; N-terminal FLAG tag, pcDNA3.1, expressed in HEK293T cells, purified on anti-FLAG magnetic beads; locus chromosome IV: 9780094-9786809; Thr151, Gly190, Glu433 predicted sites; C-terminal PTS1 (SKL)
B3: rHc-ACOX-1.2 (Haemonchus contortus) (protein)
chain: MPFRGITVGDIGPKMAYNGVDNGFLAFHHYRIPRNNMLMKHVKVTPDGKYVPPAHAKVGYSAMVHVRAHMISTQAAFLAQALTTAIRYSAIRRQGEIQPGQGEVKILEYQTQQHRLFPQLARAYAFIFTGQAVRVIFQRVQKDVARGKVDEMAKLHYISSGLKAVVTYLTGQGIEQARMSCGGHGYSKASNMSELYGVAIGGATYEGENMVMLQQLARYLMKSAEAAKSGRAVGKLVDYLVRSSEQRSAIDRQPDHDYSAHLKAFDKAAKLQVMKAYERMQSLRAQGLLEEEAWNANAVELNRAARVHTRQYIARTFDEHVKAVVHGPCREVLLDLLHLHLNYELLDMAYYLLEDGYLSGQQLDYMKEDMYRLLARLRPNIVSLVDSWDFSDHELRSVLGRRDGHVYENLYKWAQESELNRTQVLPTFEKYLKPMMKQAREQSKL
notes: N-terminal FLAG tag, pcDNA3.1, expressed in HEK293T cells, purified on anti-FLAG magnetic beads; locus chromosome IV: 9789018-9796292; Glu206 active site; C-terminal PTS1 (SKL)

Substrate: CCCCCCCCCCCCCCCC(=O)SCCNC(=O)CCNC(=O)[C@H](O)C(C)(C)COP(=O)(O)OP(=O)(O)OC[C@H]1O[C@@H](n2cnc3c(N)ncnc32)[C@H](O)[C@@H]1OP(=O)(O)O
Assay: purified protein
Format: biochemical, Haemonchus contortus
Settings: 10 μM FAD, 50 mM potassium phosphate
[1] = pH 7.5, 42°C (optimum conditions)

Protein | Km [1] | Km (pH 7.5, 37°C (optimum conditions))
B1 | 12.64 µM | –
B2 | – | 78.79 µM
B3 | 6.83 µM | –
